Measured values published in patent US20210130436A1 (published 2021).
Numbering of substitutions follows the chain as printed. Names and notes keep the numbering of the source.

Tests used:
[1] = biological target: T1, CD28 endogenously expressed on Jurkat/IL2 reporter cells (human, UniProt P10747 19-220); test: flow cytometry, Jurkat cells (CD28)
T1 construct: also called Jurkats (CD28)

[2] = biological target: T2, human PD-L1, full-length, on CHO cells (human, UniProt Q9NZQ7 19-290); test: flow cytometry; PD-L1 MFI over CD28 MFI
T2 construct: also called huPD-L1; CD274

[3] = biological target: T3, human CTLA4 (CTLA-4), full-length, on CHO cells (human, UniProt P16410 36-223); test: flow cytometry, CHO cells stably expressing CTLA4
T3 construct: also called huCTLA4

[4] = biological target: T2, human PD-L1, full-length, on CHO cells; test: flow cytometry, CHO cells stably expressing PD-L1
[5] = biological target: T3, human CTLA4 (CTLA-4), full-length, on …; test: flow cytometry, CHO/CTLA4 cells; MFI relative to WT CD80 ECD-Fc
[6] = biological target: T2, human PD-L1, full-length, on CHO cells; test: flow cytometry, CHO/PD-L1 cells; MFI relative to WT CD80 ECD-Fc
[7] = biological target: T1, CD28 endogenously expressed on …; test: flow cytometry, Jurkat cells (CD28); MFI relative to WT CD80 ECD-Fc

T2 sequence (Q9NZQ7 19-290): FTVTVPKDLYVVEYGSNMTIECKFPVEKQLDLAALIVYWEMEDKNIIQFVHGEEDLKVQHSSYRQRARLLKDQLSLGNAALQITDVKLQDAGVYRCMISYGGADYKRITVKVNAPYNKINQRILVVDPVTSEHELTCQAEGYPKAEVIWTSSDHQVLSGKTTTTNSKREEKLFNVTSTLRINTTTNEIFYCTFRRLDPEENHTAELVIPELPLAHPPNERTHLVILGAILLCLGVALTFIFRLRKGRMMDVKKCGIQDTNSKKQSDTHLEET
T3 sequence (P16410 36-223): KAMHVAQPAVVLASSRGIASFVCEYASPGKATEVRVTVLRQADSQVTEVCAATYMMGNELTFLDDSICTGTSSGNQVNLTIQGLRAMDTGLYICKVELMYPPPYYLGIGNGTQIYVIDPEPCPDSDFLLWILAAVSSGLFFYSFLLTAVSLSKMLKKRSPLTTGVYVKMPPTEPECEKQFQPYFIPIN

B1: variant CD80 IgV-Fc E35D/D46V/M47L/L85Q (Fc fusion, not shown: small tags and cut ends; a dimerising Fc or GST)
chain: VIHVTKEVKEVATLSCGHNVSVEELAQTRIYWQKDKKMVLTMMSGVLNIWPEYKNRTIFDITNNLSIVILALRPSDEGTYECVVQKYEKDAFKREHLAEVTLSVKAD
MFI at 33.3 nM [1]: 268 MFI
Ratio of PDL1:CD28 [2]: 28.1 ratio
MFI at 33.3 nM [3]: 38200 MFI
MFI at 33.3 nM [4]: 7520 MFI
Fold change to WT CD80 [5]: 0.9 fold
Fold change to WT CD80 [6]: 58.8 fold
Fold change to WT CD80 [7]: 0.4 fold

B2: variant CD80 IgV-Fc E35D/D46V/M47L/V68M/L85Q (Fc fusion, not shown: small tags and cut ends; a dimerising Fc or GST)
chain: B1 chain with V68M
MFI at 33.3 nM [1]: 464 MFI
Ratio of PDL1:CD28 [2]: 61.2 ratio
MFI at 33.3 nM [3]: 26200 MFI
MFI at 33.3 nM [4]: 28400 MFI
Fold change to WT CD80 [5]: 0.6 fold
Fold change to WT CD80 [6]: 222 fold
Fold change to WT CD80 [7]: 0.7 fold

B3: variant CD80 IgV-Fc E35D/M47L/L85Q (Fc fusion, not shown: small tags and cut ends; a dimerising Fc or GST)
chain: B1 chain with V46D
MFI at 33.3 nM [1]: 46.3 MFI
Ratio of PDL1:CD28 [2]: 132 ratio
MFI at 33.3 nM [3]: 12900 MFI
MFI at 33.3 nM [4]: 6100 MFI
Fold change to WT CD80 [5]: 0.3 fold
Fold change to WT CD80 [6]: 47.6 fold
Fold change to WT CD80 [7]: 0.1 fold

B4: variant CD80 IgV-Fc V68M (Fc fusion, not shown: small tags and cut ends; a dimerising Fc or GST)
chain: B1 chain with D35E, V46D, L47M, V68M, Q85L
MFI at 33.3 nM [1]: 37.9 MFI
Ratio of PDL1:CD28 [2]: 3.1 ratio
MFI at 33.3 nM [3]: 568 MFI
MFI at 33.3 nM [4]: 118 MFI
Fold change to WT CD80 [5]: 0 fold
Fold change to WT CD80 [6]: 0.9 fold
Fold change to WT CD80 [7]: 0.1 fold

B5: variant CD80 IgV-Fc M47V (Fc fusion, not shown: small tags and cut ends; a dimerising Fc or GST)
chain: B1 chain with D35E, V46D, L47V, Q85L
MFI at 33.3 nM [1]: 68.7 MFI
Ratio of PDL1:CD28 [2]: 33.7 ratio
MFI at 33.3 nM [3]: 33300 MFI
MFI at 33.3 nM [4]: 2320 MFI
Fold change to WT CD80 [5]: 0.8 fold
Fold change to WT CD80 [6]: 18.1 fold
Fold change to WT CD80 [7]: 0.1 fold

B6: variant CD80 IgV-Fc E35D/M47V (Fc fusion, not shown: small tags and cut ends; a dimerising Fc or GST)
chain: B1 chain with V46D, L47V, Q85L
MFI at 33.3 nM [1]: 501 MFI
Ratio of PDL1:CD28 [2]: 13.6 ratio
MFI at 33.3 nM [3]: 44600 MFI
MFI at 33.3 nM [4]: 6800 MFI
Fold change to WT CD80 [5]: 1.1 fold
Fold change to WT CD80 [6]: 53.1 fold
Fold change to WT CD80 [7]: 0.7 fold

B7: variant CD80 IgV-Fc V68M/L85Q (Fc fusion, not shown: small tags and cut ends; a dimerising Fc or GST)
chain: B1 chain with D35E, V46D, L47M, V68M
MFI at 33.3 nM [1]: 91.7 MFI
Ratio of PDL1:CD28 [2]: 3.8 ratio
MFI at 33.3 nM [3]: 3290 MFI
MFI at 33.3 nM [4]: 347 MFI
Fold change to WT CD80 [5]: 0.1 fold
Fold change to WT CD80 [6]: 2.7 fold
Fold change to WT CD80 [7]: 0.1 fold

B8: variant CD80 IgV-Fc M47V/N48K (Fc fusion, not shown: small tags and cut ends; a dimerising Fc or GST)
chain: B1 chain with D35E, V46D, L47V, N48K, Q85L
MFI at 33.3 nM [1]: 413 MFI
Ratio of PDL1:CD28 [2]: 7.5 ratio
MFI at 33.3 nM [3]: 44600 MFI
MFI at 33.3 nM [4]: 3080 MFI
Fold change to WT CD80 [5]: 1.1 fold
Fold change to WT CD80 [6]: 24.1 fold
Fold change to WT CD80 [7]: 0.6 fold

B9: variant CD80 IgV-Fc E35D/K89N (Fc fusion, not shown: small tags and cut ends; a dimerising Fc or GST)
chain: B1 chain with V46D, L47M, Q85L, K89N
MFI at 33.3 nM [1]: 236 MFI
Ratio of PDL1:CD28 [2]: 3.2 ratio
MFI at 33.3 nM [3]: 21800 MFI
MFI at 33.3 nM [4]: 757 MFI
Fold change to WT CD80 [5]: 0.5 fold
Fold change to WT CD80 [6]: 5.9 fold
Fold change to WT CD80 [7]: 0.3 fold

B10: variant CD80 IgV-Fc E35D/M47L (Fc fusion, not shown: small tags and cut ends; a dimerising Fc or GST)
chain: B1 chain with V46D, Q85L
MFI at 33.3 nM [1]: 411 MFI
Ratio of PDL1:CD28 [2]: 18.3 ratio
MFI at 33.3 nM [3]: 48000 MFI
MFI at 33.3 nM [4]: 7530 MFI
Fold change to WT CD80 [5]: 1.2 fold
Fold change to WT CD80 [6]: 58.8 fold
Fold change to WT CD80 [7]: 0.6 fold

B11: variant CD80 IgV-Fc K89N (Fc fusion, not shown: small tags and cut ends; a dimerising Fc or GST)
chain: B1 chain with D35E, V46D, L47M, Q85L, K89N
MFI at 33.3 nM [1]: 56.3 MFI
Ratio of PDL1:CD28 [2]: 0.9 ratio
MFI at 33.3 nM [3]: 944 MFI
MFI at 33.3 nM [4]: 52.8 MFI
Fold change to WT CD80 [5]: 0 fold
Fold change to WT CD80 [6]: 0.4 fold
Fold change to WT CD80 [7]: 0.1 fold

B12: variant CD80 IgV-Fc E35D/N48K (Fc fusion, not shown: small tags and cut ends; a dimerising Fc or GST)
chain: B1 chain with V46D, L47M, N48K, Q85L
MFI at 33.3 nM [1]: 194 MFI
Ratio of PDL1:CD28 [2]: 33.7 ratio
MFI at 33.3 nM [3]: 41300 MFI
MFI at 33.3 nM [4]: 6540 MFI
Fold change to WT CD80 [5]: 1 fold
Fold change to WT CD80 [6]: 51.1 fold
Fold change to WT CD80 [7]: 0.3 fold

B13: variant CD80 IgV-Fc M47L/V68M/L85Q (Fc fusion, not shown: small tags and cut ends; a dimerising Fc or GST)
chain: B1 chain with D35E, V46D, V68M
MFI at 33.3 nM [1]: 60.9 MFI
Ratio of PDL1:CD28 [2]: 66.3 ratio
MFI at 33.3 nM [3]: 11100 MFI
MFI at 33.3 nM [4]: 4040 MFI
Fold change to WT CD80 [5]: 0.3 fold
Fold change to WT CD80 [6]: 31.6 fold
Fold change to WT CD80 [7]: 0.1 fold

B14: variant CD80 IgV-Fc N48K (Fc fusion, not shown: small tags and cut ends; a dimerising Fc or GST)
chain: B1 chain with D35E, V46D, L47M, N48K, Q85L
MFI at 33.3 nM [1]: 60.1 MFI
Ratio of PDL1:CD28 [2]: 8 ratio
MFI at 33.3 nM [3]: 4950 MFI
MFI at 33.3 nM [4]: 481 MFI
Fold change to WT CD80 [5]: 0.1 fold
Fold change to WT CD80 [6]: 3.8 fold
Fold change to WT CD80 [7]: 0.1 fold

B15: variant CD80 IgV-Fc E35D/M47L/V68M/L85Q (Fc fusion, not shown: small tags and cut ends; a dimerising Fc or GST)
chain: B1 chain with V46D, V68M
MFI at 33.3 nM [1]: 159 MFI
Ratio of PDL1:CD28 [2]: 96.3 ratio
MFI at 33.3 nM [3]: 28100 MFI
MFI at 33.3 nM [4]: 15300 MFI
Fold change to WT CD80 [5]: 0.7 fold
Fold change to WT CD80 [6]: 120 fold
Fold change to WT CD80 [7]: 0.2 fold

B16: variant CD80 IgV-Fc M47V/K89N (Fc fusion, not shown: small tags and cut ends; a dimerising Fc or GST)
chain: B1 chain with D35E, V46D, L47V, Q85L, K89N
MFI at 33.3 nM [1]: 197 MFI
Ratio of PDL1:CD28 [2]: 3.2 ratio
MFI at 33.3 nM [3]: 32400 MFI
MFI at 33.3 nM [4]: 622 MFI
Fold change to WT CD80 [5]: 0.8 fold
Fold change to WT CD80 [6]: 4.9 fold
Fold change to WT CD80 [7]: 0.3 fold

B17: variant CD80 IgV-Fc E35D/M47L/V68M (Fc fusion, not shown: small tags and cut ends; a dimerising Fc or GST)
chain: B1 chain with V46D, V68M, Q85L
MFI at 33.3 nM [1]: 1240 MFI
Ratio of PDL1:CD28 [2]: 22.4 ratio
MFI at 33.3 nM [3]: 28600 MFI
MFI at 33.3 nM [4]: 27900 MFI
Fold change to WT CD80 [5]: 0.7 fold
Fold change to WT CD80 [6]: 218 fold
Fold change to WT CD80 [7]: 1.8 fold

B18: variant CD80 IgV-Fc E35D/V68M/L85Q (Fc fusion, not shown: small tags and cut ends; a dimerising Fc or GST)
chain: B1 chain with V46D, L47M, V68M
MFI at 33.3 nM [1]: 76.2 MFI
Ratio of PDL1:CD28 [2]: 78.4 ratio
MFI at 33.3 nM [3]: 42800 MFI
MFI at 33.3 nM [4]: 5970 MFI
Fold change to WT CD80 [5]: 1.1 fold
Fold change to WT CD80 [6]: 46.6 fold
Fold change to WT CD80 [7]: 0.1 fold

B19: variant CD80 IgV-Fc M47V/V68M (Fc fusion, not shown: small tags and cut ends; a dimerising Fc or GST)
chain: B1 chain with D35E, V46D, L47V, V68M, Q85L
MFI at 33.3 nM [1]: 328 MFI
Ratio of PDL1:CD28 [2]: 13.1 ratio
MFI at 33.3 nM [3]: 7280 MFI
MFI at 33.3 nM [4]: 4290 MFI
Fold change to WT CD80 [5]: 0.2 fold
Fold change to WT CD80 [6]: 33.5 fold
Fold change to WT CD80 [7]: 0.5 fold
